Patent publication US20230002480A1

How the values were obtained:
Assay in all cases: cell-based or functional assay
[1] = target: HIV-1 Env of pseudovirus CNE17 (HIV-1)
[2] = target: HIV-1 Env of pseudovirus WEAU_d15_410_787 (HIV-1)
[3] = target: HIV-1 Env of pseudovirus 211-9 (HIV-1)
[4] = target: HIV-1 Env of pseudovirus Q461.e2 (HIV-1)
[5] = target: HIV-1 Env of pseudovirus Ce1172_H1 (HIV-1)
[6] = target: HIV-1 Env of pseudovirus 6041.v3.c23 (HIV-1)
[7] = target: HIV-1 Env of pseudovirus Ce0682_E4 (HIV-1)
[8] = target: HIV-1 Env of pseudovirus C2101.c01 (HIV-1)
[9] = target: HIV-1 Env of pseudovirus Ce1086_B2 (HIV-1)
[10] = target: HIV-1 Env of pseudovirus PVO.4 (HIV-1)
[11] = target: HIV-1 Env of pseudovirus CNE19 (HIV-1)
[12] = target: HIV-1 Env of pseudovirus 263-8 (HIV-1)
[13] = target: HIV-1 Env of pseudovirus ZM247v1(Rev-) (HIV-1)
[14] = target: HIV-1 Env of pseudovirus CNE5 (HIV-1)
[15] = target: HIV-1 Env of pseudovirus X2088_c9 (HIV-1)
[16] = target: HIV-1 Env of pseudovirus Q842.d12 (HIV-1)
[17] = target: HIV-1 Env of pseudovirus 3301.v1.c24 (HIV-1)
[18] = target: HIV-1 Env of pseudovirus 231966.c02 (HIV-1)
[19] = target: HIV-1 Env of pseudovirus Ce2010_F5 (HIV-1)
[20] = target: HIV-1 Env of pseudovirus 928-28 (HIV-1)
[21] = target: HIV-1 Env of pseudovirus Q259.d2.17 (HIV-1)
[22] = target: HIV-1 Env of pseudovirus 1054_07_TC4_1499 (HIV-1)
[23] = target: HIV-1 Env of pseudovirus 6535.3 (HIV-1)
[24] = target: HIV-1 Env of pseudovirus A07412M1.vrc12 (HIV-1)
[25] = target: HIV-1 Env of pseudovirus 620345.c01 (HIV-1)
[26] = target: HIV-1 Env of pseudovirus P1981_C5_3 (HIV-1)
[27] = target: HIV-1 Env of pseudovirus HIV-16845-2.22 (HIV-1)
[28] = target: HIV-1 Env of pseudovirus ZM249M.PL1 (HIV-1)
[29] = target: HIV-1 Env of pseudovirus Q769.d22 (HIV-1)
[30] = target: HIV-1 Env of pseudovirus Du156.12 (HIV-1)
[31] = target: HIV-1 Env of pseudovirus ZM109F.PB4 (HIV-1)
[32] = target: HIV-1 Env of pseudovirus MS208.A1 (HIV-1)
[33] = target: HIV-1 Env of pseudovirus Ce2060_G9 (HIV-1)
[34] = target: HIV-1 Env of pseudovirus BJOX028000.10.3 (HIV-1)
[35] = target: HIV-1 Env of pseudovirus QH0692.42 (HIV-1)
[36] = target: HIV-1 Env of pseudovirus CNE58 (HIV-1)

8ANC195 (antibody)
neutralization IC50 [1]: 2.59 µg/mL | neutralization IC80 [1]: 11.1 µg/mL | neutralization IC50 [2]: > 50 µg/mL | neutralization IC80 [2]: > 50 µg/mL | IC50, titer in TZM.bl cells [3]: 1.34 µg/mL | IC80, titer in TZM.bl cells [3]: 8.43 µg/mL | neutralization IC50 [4]: 0.63 µg/mL | neutralization IC80 [4]: 2.51 µg/mL | neutralization IC50 [5]: 42.3 µg/mL | neutralization IC80 [5]: > 50 µg/mL | IC50, titer in TZM.bl cells [6]: > 50 µg/mL | IC80, titer in TZM.bl cells [6]: > 50 µg/mL | neutralization IC50 [7]: 0.2 µg/mL | neutralization IC80 [7]: 1.29 µg/mL | IC50, titer in TZM.bl cells [8]: 0.48 µg/mL | IC80, titer in TZM.bl cells [8]: 3.54 µg/mL | neutralization IC50 [9]: 4.42 µg/mL | neutralization IC80 [9]: 19.1 µg/mL | neutralization IC50 [10]: 0.52 µg/mL | neutralization IC80 [10]: 1.87 µg/mL | neutralization IC50 [11]: 0.29 µg/mL | neutralization IC80 [11]: 1.73 µg/mL | neutralization IC50 [12]: > 50 µg/mL | neutralization IC80 [12]: > 50 µg/mL | neutralization IC50 [13]: 3.41 µg/mL | neutralization IC80 [13]: 25.1 µg/mL | IC50, titer in TZM.bl cells [14]: 2.12 µg/mL | IC80, titer in TZM.bl cells [14]: 9.67 µg/mL | IC50, titer in TZM.bl cells [15]: > 50 µg/mL | IC80, titer in TZM.bl cells [15]: > 50 µg/mL | neutralization IC50 [16]: > 30 µg/mL | neutralization IC80 [16]: > 30 µg/mL | IC50, titer in TZM.bl cells [17]: > 50 µg/mL | IC80, titer in TZM.bl cells [17]: > 50 µg/mL | IC50, titer in TZM.bl cells [18]: 0.54 µg/mL | IC80, titer in TZM.bl cells [18]: 2.98 µg/mL | neutralization IC50 [19]: > 50 µg/mL | neutralization IC80 [19]: > 50 µg/mL | neutralization IC50 [20]: > 50 µg/mL | neutralization IC80 [20]: > 50 µg/mL | neutralization IC50 [21]: > 50 µg/mL | neutralization IC80 [21]: > 50 µg/mL | neutralization IC50 [22]: 1.02 µg/mL | neutralization IC80 [22]: 6.75 µg/mL | neutralization IC50 [23]: 0.2 µg/mL | neutralization IC80 [23]: 0.91 µg/mL | IC50, titer in TZM.bl cells [24]: 2.25 µg/mL | IC80, titer in TZM.bl cells [24]: 7.49 µg/mL | IC50, titer in TZM.bl cells [25]: > 50 µg/mL | IC80, titer in TZM.bl cells [25]: > 50 µg/mL | IC50, titer in TZM.bl cells [26]: 0.14 µg/mL | IC80, titer in TZM.bl cells [26]: 1.15 µg/mL | neutralization IC50 [27]: 3.3 µg/mL | neutralization IC80 [27]: 20.1 µg/mL | neutralization IC50 [28]: > 50 µg/mL | neutralization IC80 [28]: > 50 µg/mL | neutralization IC50 [29]: 0.26 µg/mL | neutralization IC80 [29]: 1.2 µg/mL | neutralization IC50 [30]: 0.22 µg/mL | neutralization IC80 [30]: 1.56 µg/mL | neutralization IC50 [31]: > 30 µg/mL | neutralization IC80 [31]: > 30 µg/mL | neutralization IC50 [32]: > 50 µg/mL | neutralization IC80 [32]: > 50 µg/mL | neutralization IC50 [33]: 6.2 µg/mL | neutralization IC80 [33]: > 50 µg/mL | IC50, titer in TZM.bl cells [34]: 0.45 µg/mL | IC80, titer in TZM.bl cells [34]: 2.83 µg/mL | neutralization IC50 [35]: 2.71 µg/mL | neutralization IC80 [35]: 17.1 µg/mL | neutralization IC50 [36]: > 50 µg/mL | neutralization IC80 [36]: > 50 µg/mL

NIH 45-46 (antibody)
neutralization IC50 [1]: 0.15 µg/mL | neutralization IC80 [1]: 0.55 µg/mL | neutralization IC50 [2]: 0.01 µg/mL | neutralization IC80 [2]: 0.03 µg/mL | IC50, titer in TZM.bl cells [3]: > 50 µg/mL | IC80, titer in TZM.bl cells [3]: > 50 µg/mL | neutralization IC50 [4]: 0.06 µg/mL | neutralization IC80 [4]: 0.32 µg/mL | neutralization IC50 [5]: > 50 µg/mL | neutralization IC80 [5]: > 50 µg/mL | IC50, titer in TZM.bl cells [6]: 0.01 µg/mL | IC80, titer in TZM.bl cells [6]: 0.04 µg/mL | neutralization IC50 [7]: 0.07 µg/mL | neutralization IC80 [7]: 0.25 µg/mL | IC50, titer in TZM.bl cells [8]: 12.8 µg/mL | IC80, titer in TZM.bl cells [8]: > 50 µg/mL | neutralization IC50 [9]: 0.04 µg/mL | neutralization IC80 [9]: 0.28 µg/mL | neutralization IC50 [10]: 0.17 µg/mL | neutralization IC80 [10]: 0.47 µg/mL | neutralization IC50 [11]: 0.07 µg/mL | neutralization IC80 [11]: 0.37 µg/mL | neutralization IC50 [12]: 0.05 µg/mL | neutralization IC80 [12]: 0.1 µg/mL | neutralization IC50 [13]: 1.64 µg/mL | neutralization IC80 [13]: > 50 µg/mL | IC50, titer in TZM.bl cells [14]: 0.09 µg/mL | IC80, titer in TZM.bl cells [14]: 0.41 µg/mL | IC50, titer in TZM.bl cells [15]: > 50 µg/mL | IC80, titer in TZM.bl cells [15]: > 50 µg/mL | neutralization IC50 [16]: 0.03 µg/mL | neutralization IC80 [16]: 0.03 µg/mL | IC50, titer in TZM.bl cells [17]: 0.01 µg/mL | IC80, titer in TZM.bl cells [17]: 0.03 µg/mL | IC50, titer in TZM.bl cells [18]: 1.11 µg/mL | IC80, titer in TZM.bl cells [18]: 11.4 µg/mL | neutralization IC50 [19]: 0.13 µg/mL | neutralization IC80 [19]: 0.43 µg/mL | neutralization IC50 [20]: 0.1 µg/mL | neutralization IC80 [20]: 0.39 µg/mL | neutralization IC50 [21]: 0.01 µg/mL | neutralization IC80 [21]: 0.06 µg/mL | neutralization IC50 [22]: 0.07 µg/mL | neutralization IC80 [22]: 0.61 µg/mL | neutralization IC50 [23]: 0.14 µg/mL | neutralization IC80 [23]: 0.28 µg/mL | IC50, titer in TZM.bl cells [24]: 0.03 µg/mL | IC80, titer in TZM.bl cells [24]: 0.13 µg/mL | IC50, titer in TZM.bl cells [25]: > 30 µg/mL | IC80, titer in TZM.bl cells [25]: > 30 µg/mL | IC50, titer in TZM.bl cells [26]: 0.05 µg/mL | IC80, titer in TZM.bl cells [26]: 0.22 µg/mL | neutralization IC50 [27]: 2.05 µg/mL | neutralization IC80 [27]: 12.1 µg/mL | neutralization IC50 [28]: 0.02 µg/mL | neutralization IC80 [28]: 0.06 µg/mL | neutralization IC50 [29]: 0.01 µg/mL | neutralization IC80 [29]: 0.04 µg/mL | neutralization IC50 [30]: 0.01 µg/mL | neutralization IC80 [30]: 0.05 µg/mL | neutralization IC50 [31]: 0.22 µg/mL | neutralization IC80 [31]: 0.22 µg/mL | neutralization IC50 [32]: 0.09 µg/mL | neutralization IC80 [32]: 0.6 µg/mL | neutralization IC50 [33]: 0.14 µg/mL | neutralization IC80 [33]: 0.48 µg/mL | IC50, titer in TZM.bl cells [34]: 0.07 µg/mL | IC80, titer in TZM.bl cells [34]: > 50 µg/mL | neutralization IC50 [35]: 0.55 µg/mL | neutralization IC80 [35]: 1.56 µg/mL | neutralization IC50 [36]: 0.25 µg/mL | neutralization IC80 [36]: 1.49 µg/mL
